Results as given in patent US20080032921A1.
Like-named read-outs stand apart in the source and are kept apart here.

Legend:
[1] = target: purified HLA DRB1*0101 (human); assay: competition with 125I-labelled peptide for purified HLA
[2] = target: purified HLA DRB1*0401 (human); assay: as above
[3] = target: purified HLA DRB1*1302 (human); assay: as above
[4] = target: purified HLA DRB1*1501 (human); assay: as above
[5] = target: purified HLA DRB4*0101 (human); assay: as above
HLA-DR DRB1*0101 (human) [6] = assay: competition with 125I-labelled reference peptide on purified HLA-DR
HLA-DR DRB1*0401 (human) [7] = assay: as above
HLA-DR DRB1*1302 (human) [8] = assay: as above
HLA-DR DRB1*1501 (human) [9] = assay: as above
HLA-DR DRB4*0101 (human) [10] = assay: as above
HLA-DR DRB1*0301 (human) [11] = assay: as above
HLA-DR DRB1*0101 (human) [12] = target: HLA-DR DRB1*0101 (human)
HLA-DR DRB1*0301 (human) [13] = assay: competition vs 125I-labeled peptide, purified HLA
HLA-DR DRB1*0401 (human) [14] = assay: competition vs 125I-labeled peptide, purified HLA
HLA-DR DRB1*1302 (human) [15] = assay: competition vs 125I-labeled peptide, purified HLA
HLA-DR DRB1*1501 (human) [16] = assay: competition vs 125I-labeled peptide, purified HLA
HLA-DR DRB4*0101 (human) [17] = assay: competition vs 125I-labeled peptide, purified HLA
HLA-DR DRB1*0101 (human) [18] = assay: competition assay, purified HLA, inhibition of 125I-labelled reference peptide
HLA-DR DRB1*0301 (human) [19] = assay: as above
HLA-DR DRB1*0401 (human) [20] = assay: as above
HLA-DR DRB1*0404 (human) [21] = assay: as above
HLA-DR DRB1*0405 (human) [22] = assay: as above
HLA-DR DRB1*1302 (human) [23] = assay: as above
[24] = target: purified HLA DRB1*0101 (human); assay: competition with 125I-labelled reference peptide, purified HLA
[25] = target: purified HLA DRB1*0301 (human); assay: as above
[26] = target: purified HLA DRB1*0401 (human); assay: as above
[27] = target: purified HLA DRB1*0404 (human); assay: as above
[28] = target: purified HLA DRB1*0405 (human); assay: as above
[29] = target: purified HLA DRB1*1302 (human); assay: as above
HLA-DR DRB1*0101 (human) [30] = assay: competition with 125I-labelled peptide, purified HLA
HLA-DR DRB1*0401 (human) [31] = assay: as above
HLA-DR DRB1*0404 (human) [32] = assay: as above
HLA-DR DRB1*0701 (human) = assay: as above
HLA-DR DRB1*0802 (human) = assay: as above
HLA-DR DRB1*1101 (human) = assay: as above
HLA-DR DRB1*1302 (human) [33] = assay: as above
HLA-DR DRB1*1501 (human) [34] = assay: as above
HLA-DR DRB4*0101 (human) [35] = assay: as above
HLA-DR DRB5*0101 (human) = assay: as above
HLA-DR DRB1*0301 (human) [36] = assay: as above
HLA-DR DRB1*0405 (human) [37] = assay: as above
HLA-DR DRB4*0101 (human) [38] = target: HLA-DR DRB4*0101 (human)
HLA-DR DRB1*0101 (human) [39] = assay: competition vs 125I-labeled peptide, purified HLA
[40] = target: purified HLA-DR DRB1*0101 (human); assay: competition with 125I-labelled reference peptide, purified HLA
[41] = target: purified HLA-DR DRB1*0301 (human); assay: as above
[42] = target: purified HLA-DR DRB1*0401 (human); assay: as above
[43] = target: purified HLA-DR DRB1*0404 (human); assay: as above
[44] = target: purified HLA-DR DRB1*0405 (human); assay: as above
[45] = target: purified HLA-DR DRB1*1101 (human); assay: as above
[46] = target: purified HLA-DR DRB1*1302 (human); assay: as above
[47] = target: purified HLA-DR DRB1*1501 (human); assay: as above
[48] = target: purified HLA-DR DRB4*0101 (human); assay: as above
[49] = target: purified HLA-DR DRB5*0101 (human); assay: as above

## SLMLQIGNMISIWVSHS (modifications not checked) [Flu.NA.21 peptide …]
[1]
  IC50: 36 nM
[2]
  IC50: 480 nM
[3]
  IC50: 44 nM
[4]
  IC50: 34 nM
[5]
  IC50: 746 nM
HLA-DR DRB1*0101 (human) [6]
  IC50: 36 nM
HLA-DR DRB1*0401 (human) [7]
  IC50: 480 nM
HLA-DR DRB1*1302 (human) [8]
  IC50: 44 nM
HLA-DR DRB1*1501 (human) [9]
  IC50: 34 nM
HLA-DR DRB4*0101 (human) [10]
  IC50: 746 nM

## WAVYSKDNSIRIGSK (modifications not checked) [Flu.NA.77 peptide …]
HLA-DR DRB1*0101 (human) [6]
  IC50: 5400 nM
HLA-DR DRB1*0301 (human) [11]
  IC50: 291 nM
HLA-DR DRB1*0401 (human) [7]
  IC50: 1600 nM
HLA-DR DRB1*1302 (human) [8]
  IC50: 36 nM
HLA-DR DRB1*1501 (human) [9]
  IC50: 642 nM
HLA-DR DRB4*0101 (human) [10]
  IC50: 19500 nM

## VSLVKSDQICIGYHA (modifications not checked) [Flu.HA.11]
HLA-DR DRB1*0101 (human) [12]
  IC50: > 10000 nM
HLA-DR DRB1*0301 (human) [13]
  IC50: 511 nM
HLA-DR DRB1*0401 (human) [14]
  IC50: 513 nM
HLA-DR DRB1*1302 (human) [15]
  IC50: 175 nM
HLA-DR DRB1*1501 (human) [16]
  IC50: 14500 nM
HLA-DR DRB4*0101 (human) [17]
  IC50: 32 nM

## GSYFFGDNAEEYDN (modifications not checked) [Flu.NP.488]
HLA-DR DRB1*0101 (human) [18]
  IC50: > 10000 nM
HLA-DR DRB1*0301 (human) [19]
  IC50: 139 nM
HLA-DR DRB1*0401 (human) [20]
  IC50: 1950 nM
HLA-DR DRB1*0404 (human) [21]
  IC50: > 10000 nM
HLA-DR DRB1*0405 (human) [22]
  IC50: 65 nM
HLA-DR DRB1*1302 (human) [23]
  IC50: > 10000 nM

## NNMINNDLGPATAQM (modifications not checked) [Flu.PB1.535]
[24]
  IC50: 3080 nM
[25]
  IC50: 527 nM
[26]
  IC50: 798 nM
[27]
  IC50: 1830 nM
[28]
  IC50: > 10000 nM
[29]
  IC50: 477 nM

## TKKMVTQRTIGKKKQ (modifications not checked) [Flu.PB1.199]
HLA-DR DRB1*0101 (human) [30]
  IC50: 1150 nM
HLA-DR DRB1*0401 (human) [31]
  IC50: 71 nM
HLA-DR DRB1*0404 (human) [32]
  IC50: 62 nM
HLA-DR DRB1*0701 (human)
  IC50: 14100 nM
HLA-DR DRB1*0802 (human)
  IC50: 55 nM
HLA-DR DRB1*1101 (human)
  IC50: 449 nM
HLA-DR DRB1*1302 (human) [33]
  IC50: 6120 nM
HLA-DR DRB1*1501 (human) [34]
  IC50: 9710 nM
HLA-DR DRB4*0101 (human) [35]
  IC50: 57 nM
HLA-DR DRB5*0101 (human)
  IC50: 4.1 nM

## IYQILSIYSTVASSLA (modifications not checked) [Flu.HA.529 peptide …]
[1]
  IC50: 55 nM
[2]
  IC50: 89 nM
[3]
  IC50: 13 nM
[4]
  IC50: 4.7 nM
[5]
  IC50: 18 nM

## ILSIYSTVASSLALAI (modifications not checked) [Flu.HA.532 peptide …]
[1]
  IC50: 11 nM
[2]
  IC50: 91 nM
[3]
  IC50: 7.6 nM
[4]
  IC50: 20 nM
[5]
  IC50: 824 nM

## LEGFSAESRKLLLVV (modifications not checked) [Flu.PA.658]
HLA-DR DRB1*0101 (human) [30]
  IC50: 12 nM
HLA-DR DRB1*0301 (human) [36]
  IC50: 661 nM
HLA-DR DRB1*0401 (human) [31]
  IC50: 861 nM
HLA-DR DRB1*0404 (human) [32]
  IC50: 1150 nM
HLA-DR DRB1*0405 (human) [37]
  IC50: 3860 nM
HLA-DR DRB1*1302 (human) [33]
  IC50: 2270 nM

## EECLINDPWVLLNAS (modifications not checked) [Flu.PA.694]
HLA-DR DRB1*0101 (human) [30]
  IC50: 34 nM
HLA-DR DRB1*0301 (human) [36]
  IC50: 618 nM
HLA-DR DRB1*0401 (human) [31]
  IC50: 1220 nM
HLA-DR DRB1*0404 (human) [32]
  IC50: 183 nM
HLA-DR DRB1*0405 (human) [37]
  IC50: 15000 nM
HLA-DR DRB1*1302 (human) [33]
  IC50: 246 nM

## QKAMMDQVRESRNPG (modifications not checked) [Flu.NP.238]
HLA-DR DRB1*0101 (human) [18]
  IC50: 17600 nM
HLA-DR DRB1*0301 (human) [19]
  IC50: 450 nM
HLA-DR DRB1*0401 (human) [20]
  IC50: 856 nM
HLA-DR DRB1*0404 (human) [21]
  IC50: 1830 nM
HLA-DR DRB1*0405 (human) [22]
  IC50: 13100 nM
HLA-DR DRB1*1302 (human) [23]
  IC50: 10500 nM

## LILYDKEEIRRIWRQ (modifications not checked) [Flu.NP.111]
HLA-DR DRB1*0101 (human) [18]
  IC50: 7180 nM
HLA-DR DRB1*0301 (human) [19]
  IC50: 22 nM
HLA-DR DRB1*0401 (human) [20]
  IC50: 12400 nM
HLA-DR DRB1*0404 (human) [21]
  IC50: 262 nM
HLA-DR DRB1*0405 (human) [22]
  IC50: 7500 nM
HLA-DR DRB1*1302 (human) [23]
  IC50: 3100 nM

## VERILKEESDEALKM (modifications not checked) [Flu.NS1.68]
HLA-DR DRB1*0101 (human) [18]
  IC50: 5190 nM
HLA-DR DRB1*0401 (human) [20]
  IC50: 679 nM
HLA-DR DRB1*0404 (human) [21]
  IC50: 572 nM
HLA-DR DRB1*0405 (human) [22]
  IC50: > 10000 nM
HLA-DR DRB1*1302 (human) [23]
  IC50: 5060 nM

## TQGALLNDKHSNGTVKD (modifications not checked) [Flu.NA.115 peptide …]
HLA-DR DRB1*0101 (human) [12]
  IC50: > 10000 nM
HLA-DR DRB4*0101 (human) [38]
  IC50: > 10000 nM
HLA-DR DRB1*0301 (human) [11]
  IC50: 177 nM
HLA-DR DRB1*0401 (human) [7]
  IC50: 19000 nM
HLA-DR DRB1*1302 (human) [8]
  IC50: 468 nM
HLA-DR DRB1*1501 (human) [9]
  IC50: 822 nM

## YIQMCTELKLSDYEG (modifications not checked) [Flu.NP.43]
HLA-DR DRB1*0101 (human) [30]
  IC50: 320 nM
HLA-DR DRB1*0301 (human) [36]
  IC50: 368 nM
HLA-DR DRB1*0401 (human) [31]
  IC50: 392 nM
HLA-DR DRB1*0404 (human) [32]
  IC50: 1640 nM
HLA-DR DRB1*0405 (human) [37]
  IC50: 2690 nM
HLA-DR DRB1*0701 (human)
  IC50: 5370 nM
HLA-DR DRB1*1101 (human)
  IC50: 5840 nM
HLA-DR DRB1*1501 (human) [34]
  IC50: 594 nM

## KSSFFRNVVWLIKKN (modifications not checked) [Flu.HA.156]
HLA-DR DRB4*0101 (human) [38]
  IC50: > 10000 nM
HLA-DR DRB1*0101 (human) [39]
  IC50: 46 nM
HLA-DR DRB1*0401 (human) [14]
  IC50: 474 nM
HLA-DR DRB1*1302 (human) [15]
  IC50: 20 nM
HLA-DR DRB1*1501 (human) [16]
  IC50: 832 nM

## LIQLIVSGRDEQSIA (modifications not checked) [Flu.PB2.384]
[40]
  IC50: 3220 nM
[41]
  IC50: 53 nM
[42]
  IC50: 83 nM
[43]
  IC50: 90 nM
[44]
  IC50: 460 nM
[45]
  IC50: 2010 nM
[46]
  IC50: 4680 nM
[47]
  IC50: 420 nM
[48]
  IC50: 9.9 nM
[49]
  IC50: 1720 nM

## AGLLVSDGGPNLYNI (modifications not checked) [Flu.PB1.590]
[24]
  IC50: 8120 nM
[25]
  IC50: 107 nM
[26]
  IC50: 3000 nM
[27]
  IC50: 3490 nM
[28]
  IC50: > 10000 nM
[29]
  IC50: 105 nM
